Legend:
2x3F pep11-9 = 2x3F pep11-9 (artificial); experiment: in vitro fluorescence ELISA, values in figure only; conditions: label: biotin
Procedure: (§1) Incubations are performed at room temperature for 40 minutes. Black streptavidin-coated wells are blocked with 4% marvel for 1 hour. Binding reactions are added to the streptavidin-coated wells and incubated for a further 40 minutes at room temperature. Wells are washed 5 times in 100 μl wash buffer (1×PBS (pH 7.0), […] ZnCl₂, 0.01 mg/ml BSA, and 0.5% Tween 20), and finally 50 μl QuantaBlu peroxidase substrate solution (Pierce) is added to detect bound HA-tagged zinc finger peptide. ELISA signals are read in a SPECTRAmax GeminiXS spectrophotometer (Molecular Devices) and analysed using SOFTmax Pro 3.1.2 (Molecular Devices).
(§2) To compare the specificity of the 2x3F pep11-9 and 3x2F pep11-9 peptides, samples from the same translation reaction are assayed against each of the binding sites above. The ELISA signals obtained from each assay are then normalised relative to the maximum signal obtained for that peptide. (In this way the absolute amount of either peptide produced by the in vitro transcription/translation system is insignificant).

3x2F pep11-9 = 3x2F pep11-9 (artificial); experiment: in vitro fluorescence ELISA, values in figure only; conditions: label: biotin
Procedure: as §1, §2

Sequence of 3x2F pep11-9 (artificial) (chain, as listed by the source): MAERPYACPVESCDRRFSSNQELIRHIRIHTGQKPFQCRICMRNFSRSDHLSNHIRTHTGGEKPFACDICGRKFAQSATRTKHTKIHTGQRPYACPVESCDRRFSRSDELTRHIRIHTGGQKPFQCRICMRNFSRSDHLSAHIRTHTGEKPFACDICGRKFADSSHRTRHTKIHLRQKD
Sequence of 2x3F pep11-9 (artificial) (chain, as listed by the source): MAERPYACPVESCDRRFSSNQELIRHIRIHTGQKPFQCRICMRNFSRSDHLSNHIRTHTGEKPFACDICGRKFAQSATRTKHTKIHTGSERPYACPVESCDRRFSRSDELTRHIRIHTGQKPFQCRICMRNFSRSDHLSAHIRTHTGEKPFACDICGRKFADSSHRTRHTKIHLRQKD

B1: 11-9 (dsDNA)
DNA 1: GGCCAGGCGGCAGGGGTT
DNA 2: AACCCCTGCCGCCTGGCC
binding result (2x3F pep11-9): binds
binding result (3x2F pep11-9): binds

— US20030119023, “Nucleic acid binding polypeptides characterized by flexible linkers connected nucleic acid binding modules” (published 2003)
